Assay results: PMC6158747

Tested on: CytR DNA-binding domain
Assay: fluorescence anisotropy
Conditions: Stopped-flow kinetics: 50 mM sodium phosphate, 30 mM NaCl, 1 mM EDTA, pH 6.0, 278 K, 300 nM Alexa-532 udp half-site, equilibrium isotherms at 293 K (buffer not …)

Question: For PurR binding site (PurFO), which K half (293 K, first of two overlapping titration profiles (K1/2,1)) is on record?
Answer: Its K half is 0.4 µM.

Question: Which K half (293 K, similar affinity to udp half-site) does the source give for random DNA (Poly-AC DNA) here?
Answer: The K half was 10 µM.

Question: How did the K half turn out when udp half-site (Udp-Half) was run?
Answer: Its K half is 10 µM.
